According to US20260199902A1, “SYSTEM AND APPARATUS FOR THE HAND-HELD AMPLIFICATION AND DETECTION OF NUCLEIC ACIDS” (Darwin Biosciences, Inc., priority 2022, published 2026):

B1: Proteinase K: listed under Protein RNase Inhibitors (protein, UniProt P06873 106-384, looked up)
Proteinase K: AAQTNAPWGLARISSTSPGTSTYYYDESAGQGSCVYVIDTGIEASHPEFEGRAQMVKTYYYSSRDGNGHGTHCAGTVGSRTYGVAKKTQLFGVKVLDDNGSGQYSTIIAGMDFVASDKNNRNCPKGVVASLSLGGGYSSSVNSAAARLQSSGVMVAVAAGNNNADARNYSPASEPSVCTVGASDRYDRRSSFSNYGSVLDIFGPGTSILSTWIGGSTRSISGTSMATPHVAGLAAYLMTLGKTTAASACRYIADTANKGDLSNIPFGTVNLLAYNNYQA
B2: NEB RI, murine: murine RNase Inhibitor (M0314; New England BioLabs) (protein, UniProt Q91VI7 1-456, looked up)
Ribonuclease inhibitor: MSLDIQCEQLSDARWTELLPLIQQYEVVRLDDCGLTEVRCKDISSAVQANPALTELSLRTNELGDGGVGLVLQGLQNPTCKIQKLSLQNCGLTEAGCGILPGMLRSLSTLRELHLNDNPMGDAGLKLLCEGLQDPQCRLEKLQLEYCNLTATSCEPLASVLRVKADFKELVLSNNDLHEPGVRILCQGLKDSACQLESLKLENCGITAANCKDLCDVVASKASLQELDLSSNKLGNAGIAALCPGLLLPSCKLRTLWLWECDITAEGCKDLCRVLRAKQSLKELSLASNELKDEGARLLCESLLEPGCQLESLWIKTCSLTAASCPYFCSVLTKSRSLLELQMSSNPLGDEGVQELCKALSQPDTVLRELWLGDCDVTNSGCSSLANVLLANRSLRELDLSNNCMGGPGVLQLLESLKQPSCTLQQLVLYDIYWTNEVEEQLRALEEERPSLRIIS

Tests used:
[1] = test system: saliva RNases; assay: RNase activity assay: cell line RNA incubated with treated saliva, read on Agilent TapeStation; assay type: biochemical, human; design: key: Pass (green) indicating sufficient RNase inactivation; Partial Pass (yellow) indicating partial RNase inactivation; Fail (red) indicating incomplete RNase inactivation
Method: FIG. 27. Example of saliva RNase activity assays assayed on TapeStation High Sensitivity RNA ScreenTapes (5067; Agilent). Results from three independent assays are shown. Lanes 1-3 (left to right) are experimental controls including 500 μg RNA in RNase free water, untreated saliva without added cell line RNA, and untreated saliva incubated with cell line RNA. Lanes labeled “Incomplete RNase Inactivation” contain no ribosomal RNA bands, indicating RNase activity is present. Lanes labeled “Sufficient RNase Inactivation” contain sharp ribosomal bands (similar to RNA in water), indicating RNases have been inactivated. gDNA=genomic DNA.
To screen for chemical and protein-based reagents that inhibit saliva RNases, we developed an RNase activity assay in which purified cell line RNA was incubated for 30 min at 37° C. with saliva samples after treatment with potential reagents for RNase inhibition (FIG. 2.5.3). After incubation, RNA was purified and analyzed on an Agilent TapeStation. Sharpness of the eukaryotic ribosomal RNA bands (28S and 18S) were compared to determine RNase activity in the presence of various inhibitors. In addition, the Agilent TapeStation calculates an RNA Integrity Score (RIN) as a measure of RNA quality (RIN of 10-fully intact RNA, RIN of 1=fully degraded RNA), however contaminating nucleic acid (e.g., 16S and 23S rRNA from bacteria) interferes with this calculation.
To screen for chemical and protein-based reagents that inhibit saliva RNases, we developed an RNase activity assay in which purified cell line RNA was incubated for 30 min at 37° C. with saliva samples after treatment with potential reagents for RNase inhibition (FIG. 2.5.3). After incubation, RNA was purified and analyzed on an Agilent TapeStation. Sharpness of the eukaryotic ribosomal RNA bands (28S and 18S) were compared to determine RNase activity in the presence of various inhibitors. […]

[2] = test system: RNase activity in saliva; assay: RNase Alert Assay on saliva samples; assay type: biochemical, human
Method: FIGS. 3A-D. Optimizing and measuring RNase inhibition by murine RNase Inhibitor (mRI). (A) Diagram of the RNase Alert assay. A quenched fluorescent ssRNA probe reports RNase activity when the quencher and fluorophore are physically separated by RNase degradation. Data is collected immediately after saliva is added to the assay and the RNase activity is calculated from a linear slope of the first 90 second of measurements. (B) RNase activity in five individual saliva samples with or without addition of 4 U/μl mRI. (C) RT-qPCR data for a panel of 12 biomarkers indicating the relative abundance of each biomarker at the indicated time after lysis. Each timepoint is from a pooled saliva sample run through a separate device. Delta Ct values were normalized to the 0 second timepoint. Horizontal bars are mean+/−standard deviation. (D) RNase activity in four saliva samples before and after rehydrating an amplification pad containing 4 U/μl of lyophilized mRI. Saliva in rehydrated pads went through a 20-minute RPA incubation at 39° C. prior to addition to the RNase Alert assay showing that RNase inhibition is long-lived. Ct=Cycle Threshold. […]
To confirm that lyophilized mRI in the amplification pad can rehydrate and inhibit saliva RNases, four amplification pads were rehydrated with saliva and the contents of the rehydrated pads were measured in the RNase Alert Assay (FIG. 3D).

[3] = test system: RT-RPA reactions; assay: RT-RPA interference (compatibility) testing of lysis and RNase inhibitor reagents, agarose gel; assay type: biochemical; design: key: Pass (green) indicates that reagents did not interfere with RT-RPA; Partial Pass: Partial pass (yellow) indicates that reagents had partial interference in RT-RPA; Fail (red) indicates reagents completely interfered with RT-RPA reactions; settings: 4 U/μl final in RT-RPA reaction
Method: FIG. 28. Reagent interference testing in RT-RPA. Lysis and RNase inhibitor reagents tested in RT-RPA using cDNA and RNA templates. RT-RPA reactions were prepared with varying concentrations of reagents, as labeled above (final concentrations in a 20 μl RT-RPA reaction are reported). Amplification products were run on a 2% agarose gel and band intensities were compared to control (No added reagent) reactions. Reactions labeled in red contain no reverse transcriptase. The expected size of the CXCL8 amplicon is indicated to the left of the gel. GuHCI=Guanidine hydrochloride, Triton=Triton X-100.
Reagents under consideration for the device were tested for compatibility with RT-RPA at the concentrations expected to be required for lysis. To test for interference, lysis or RNase inhibitor reagents were spiked into RT-RPA reactions with purified cell line RNA or cDNA as a template. Reactions were analyzed by agarose gel for the presence or absence of amplified products. […]

| Compatibility in RT-RPA, Result [3] | Molecule | Inactivation of saliva RNases, Result ([1]; 50 μg/ml and 2.5 mg/ml) | RNase activity in saliva samples ([2]; 4 U/μL added, five donor saliva samples) | Inhibition of RNase activity ([2]; lyophilized in amplification pad, rehydrated with saliva, four pads) | Inactivation of saliva RNases, Result ([1]; 4 U/μl) | Inactivation of saliva RNases, Result ([1]; 8 U/μl) |
| --- | --- | --- | --- | --- | --- | --- |
| – | B1 | Fail | – | – | – | – |
| Pass | B2 | – | reduced the RNase activity in all five samples to negligible amounts | Nearly complete inhibition of RNase activity | Partial | Pass |
